# Reference: paper PMC7954794, “Protein context shapes the specificity of SH3 domain-mediated interactions in vivo” (Nature Communications, 2021)
# B1: WT (protein, UniProt P15891 2-592, looked up)
# Actin-binding protein: ALEPIDYTTHSREIDAEYLKIVRGSDPDTTWLIISPNAKKEYEPESTGSSFHDFLQLFDETKVQYGLARVSPPGSDVEKIIIIGWCPDSAPLKTRASFAANFAAVANNLFKGYHVQVTARDEDDLDENELLMKISNAAGARYSIQTSSKQQGKASTPPVKKSFTPSKSPAPVSKKEPVKTPSPAPAAKISSRVNDNNDDDDWNEPELKERDFDQAPLKPNQSSYKPIGKIDLQKVIAEEKAKEDPRLVQKPTAAGSKIDPSSDIANLKNESKLKRDSEFNSFLGTTKPPSMTESSLKNDDDKVIKGFRNEKSPAQLWAERKAKQNSGNAETKAEAPKPEVPEDEPEGEPDVKDLKSKFEGLAASEKEEEEMENKFAPPPKKSEPTIISPKPFSKPQEPVKAEEAEQPKTDYKKIGNPLPGMHIEADNEEEPEENDDDWDDDEDEAAQPPLPSRNVASGAPVQKEEPEQEEIAPSLPSRNSIPAPKQEEAPEQAPEEEIEEEAEEAAPQLPSRSSAAPPPPPRRATPEKKPKENPWATAEYDYDAAEDNELTFVENDKIINIEFVDDDWWLGELEKDGSKGLFPSNYVSLGN
# Tested on: Abp1 (1xFLAG)
# Test: Western blot expression level of Abp1 SH3 mutants (Fig. S3C-D)
# Type: cell-based, Saccharomyces cerevisiae
# Description: Precultures of yeast cells expressing baits fused with the DHFR F[1,2]-FLAG were grown overnight at 30 °C with agitation in synthetic complete medium. The next day, cells were expanded in synthetic complete medium to reach their exponential phase (OD600 of around 1.0), pelleted, and frozen at −80 °C. The equivalent of fifty OD600 of cells was resuspended in ice-cold yeast lysis buffer (10 mM Tris-HCl pH 7.4, 150 mM NaCl, 0.5 mM EDTA (Millipore Sigma), 1% Triton X-100 (Millipore Sigma), and one cOmplete Mini Protease Inhibitor Cocktail (Millipore Sigma) per 10 mL) with […] glass beads (Millipore Sigma) and disrupted at 4 °C by 10 cycles of 2 min vortexing and 2 min cooldown. The equivalent of […] of lysed cells was used for the immunoprecipitation of the bait proteins using FLAG-M2 agarose beads (Millipore Sigma). The beads were incubated with the cell lysates for 120 min at 4 °C with a slow rotation, followed by three washes with the yeast lysis buffer.
# Protein extracts and affinity-purified baits from yeast and human lysed cells were migrated on 10% polyacrylamide gels. The separated proteins were then transferred to nitrocellulose membranes. Validation of correct protein loading was done with ponceau staining of the membranes. Before the primary antibody incubations, membranes were blocked in 5% milk. Protein signals were detected on an Amersham Imager 600RGB (GE Healthcare) following the incubation of the membranes with the appropriate HRP-conjugated secondary antibodies and the Clarity Western ECL Substrate (Bio-Rad). The antibodies used in this study are M2-HRP (A8592, Sigma, 1/50,000), rabbit anti-FLAG (F7425, Sigma, 1/1000), PAK (SC-881, Santa Cruz, 1/200), p130cas/BCAR1 (SC-860, Santa Cruz, 1/200), actin (Cell Signaling Technology, 1/2000), anti-mouse HRP (Cell Signaling Technology, 1/10,000) and anti-rabbit HRP (Cell Signaling Technology, 1/10,000). The quantification of the WB signals was performed with the Amersham Imager 600 analysis software (GE Healthcare). […]
# C, WB comparing expression levels of selected Abp1 SH3 mutants with WT Abp1. An asterisk represents a stop codon, which inhibits translation of the 1xFLAG epitope. D, Quantification of the relative level of expression of Abp1 SH3 mutants by WB as in C, (log2 of Abp1 SH3 mutant/Abp1 WT ratio, WB relative level of expression of 0 for WT Abp1) compared to their DMS scores (Hua2 (left): Pearson’s r = -0.34, p-value = 0.46, Lsb3 […]
# (right): Pearson’s r = -0.81, p-value = 0.03). […]
# Most […]
# interface residues sensitive to mutations, such as Y7, E13, E16, V3 1, D32, D34, L48 and Y53, specifically affect Hua2 PPI. See also Supplementary Table 4.
molecule,measurement,setting,value
B1,Ratio Mutant/WT Flag,Western blot Flag signal of mutant relative to WT,1
same,Flag (2 bands),"Western blot, Flag signal, 2 bands",36554
